Here are results for one protein from publication PMC2879449 (Biochemistry, 2010).

The data set concerns the molecule itself. The experiment in a line: crystal structure.

B1: WlbB, an N-acetyltransferase from Bordetella petrii (enzyme, UniProt A9IH93 1-190, looked up)
chain: MATIHPTAIVDEGARIGAHSRIWHWVHICGGAEIGEGCSLGQNVFVGNRVRIGNRVKIQNNVSVYDNVFLEDDVFCGPSMVFTNVYNPRAAIERKSEYRDTIVRQGATLGANCTVVCGATIGRYAFVGAGAVVNKDVPDFALVVGVPARQIGWMSRHGEQLDLPLRGNAEATCPHTGERYILTDGVCRLA
Regarding B1, the “stoichiometry N” value was found to be 3.

As a reminder, the stoichiometry N is the number of molecules, sites or subunits per partner or assembly.
